Experimental data published in the supplement of paper PMC7877785.
± gives the uncertainty stated by the source.

Assay: self-splicing fitness, log relative to wild type (ln ratio); higher = more splicing; Tetrahymena group I intron in knt gene, E. coli kanamycin selection, DiMSum; sequences stand for … in CUCUCU…GGAGGGAAAAGUUAUCAGGCAUGCACCUGGUAGCUAGUCUUUAAACCAAUAGAUUGCAUCGGUUUAAAAGGCAAGACCGUCAAAUUGCGGGAAAGGGGUCAACAGCCGUUCAGUACCAAGUCUCAGGGGAAACUUUGAGAUGGCCUUGCAAAGGGUAUGGUAAUAAGCUGACGGACAUGGUCCUAACCACGCAGCCAAGUCCUAAGUCAACAGAUCUUCUGUUGAUAUGGAUGCAGUUCACAGACUAAAUGUCGGUCGGGGAAGAUGUAUUCUUCUCAUAAGAUAUAGUCGGACCUCUCCUUAAUGGGAGCUAGCGGAUGAAGUGAUGCAACACUGGAGCCGCUGGGAACUAAUUUGUAUGCGAAAGUAUAUUGAUUAGUUUUGGAGUACUCGUGGUCG
Outline: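 Six replicate transformations of E. coli BL21(DE3) with a pET-22b(+) library were grown overnight at 37°C or 30°C. The library randomised all eight P1ex-region intron nucleotides, the intron lying in the knt kanamycin-resistance gene, and plates were LB agar with or without 25 μg/mL kanamycin plus 100 μg/mL carbenicillin, 50 μM IPTG and 0.2% rhamnose. Pooled colonies were amplicon-sequenced on an Illumina HiSeq 2500, and fitness is the DiMSum error-weighted combination of wild-type-normalised replicate fold changes, kanamycin versus none.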

| Sequence | self-splicing fitness (ln) (30 °C) | self-splicing fitness (ln) (37 °C) |
| --- | --- | --- |
| ACAGAGCAAUAUUACGAUCC | -3.76 ± 0.39 | -1.5 ± 0.34 |
| ACAGAGCAAUAUUACGAUCG | -2.71 ± 0.18 | -1.88 ± 0.23 |
| ACAGAGCAAUAUUACGCAGG | -4.02 ± 0.18 | -2.59 ± 0.17 |
| ACAGAGCAAUAUUACGCCUA | -1.68 ± 0.23 | -1.93 ± 0.22 |
| ACAGAGCAAUAUUACGCGUA | -3.21 ± 0.2 | -2.91 ± 0.23 |
| ACAGAGCAAUAUUACGCUAG | -3.28 ± 0.19 | -2.61 ± 0.18 |
| ACAGAGCAAUAUUACGCUUA | -2.01 ± 0.22 | -1.25 ± 0.16 |
| ACAGAGCAAUAUUACGGUCA | -2.73 ± 0.22 | -0.944 ± 0.17 |
| ACAGAGCAAUAUUACGGUGC | -3.86 ± 0.44 | -2.09 ± 0.31 |
| ACAGAGCAAUAUUACGUCGG | -3.64 ± 0.16 | -3.58 ± 0.23 |
| ACAGAGCAAUAUUACGUCUU | -1.48 ± 0.18 | -1.98 ± 0.18 |
| ACAGAGCAAUAUUACGUGGA | -3.67 ± 0.31 | -2.88 ± 0.31 |
| ACAGAGCAAUAUUACGUUUC |  | -2.31 ± 0.39 |
| ACAUAGCAAUAUUACGAAGC |  | -1.85 ± 0.42 |
| ACAUAGCAAUAUUACGACCG | -0.782 ± 0.098 | -0.154 ± 0.14 |
| ACAUAGCAAUAUUACGAGCA | -2.89 ± 0.12 | -1.1 ± 0.11 |
| ACAUAGCAAUAUUACGAGGU | -3.59 ± 0.16 | -3.3 ± 0.15 |
| ACAUAGCAAUAUUACGAUGG | -1.64 ± 0.088 | -0.176 ± 0.11 |
| ACAUAGCAAUAUUACGAUUG | -2.62 ± 0.1 | -0.942 ± 0.11 |
| ACAUAGCAAUAUUACGCCCA | -0.769 ± 0.13 | -0.85 ± 0.15 |
| ACAUAGCAAUAUUACGCGCA | -0.42 ± 0.076 | -0.818 ± 0.088 |
| ACAUAGCAAUAUUACGCGGU | -3.36 ± 0.17 | -2.86 ± 0.26 |
| ACAUAGCAAUAUUACGCUUG | -1.76 ± 0.11 | -1.28 ± 0.14 |
| ACAUAGCAAUAUUACGGAGG | -3 ± 0.17 | -0.703 ± 0.15 |

| Sequence | self-splicing fitness (ln) (30 °C) | self-splicing fitness (ln) (37 °C) |
| --- | --- | --- |
| ACAUAGCAAUAUUACGGUAC | -4.24 ± 0.33 | -2.51 ± 0.27 |
| ACAUAGCAAUAUUACGGUCG | -1.62 ± 0.088 | -0.223 ± 0.1 |
| ACAUAGCAAUAUUACGUGGG | -3.52 ± 0.12 | -2.75 ± 0.12 |
| ACAUAGCAAUAUUACGUGUC | -4.9 ± 0.41 | -2.72 ± 0.28 |
| ACCAAGCAAUAUUACGACGG | -0.86 ± 0.08 | 0.495 ± 0.1 |
| ACCAAGCAAUAUUACGAGCC | -3.61 ± 0.2 | -1.08 ± 0.15 |
| ACCAAGCAAUAUUACGAGUG | -2.09 ± 0.052 | -1.14 ± 0.062 |
| ACCAAGCAAUAUUACGAUAU | -3.22 ± 0.11 | -2.17 ± 0.095 |
| ACCAAGCAAUAUUACGAUGU | -1.7 ± 0.057 | -1.03 ± 0.073 |
| ACCAAGCAAUAUUACGCAAG | -2.05 ± 0.072 | -2.12 ± 0.12 |
| ACCAAGCAAUAUUACGCAUU | -2.81 ± 0.085 | -1.26 ± 0.077 |
| ACCAAGCAAUAUUACGCCCA | -1.06 ± 0.13 | -0.545 ± 0.17 |
| ACCAAGCAAUAUUACGCCUG | -2.05 ± 0.18 | -2.31 ± 0.25 |
| ACCAAGCAAUAUUACGCGUG | -2.41 ± 0.083 | -1.19 ± 0.07 |
| ACCAAGCAAUAUUACGGCCU | -0.444 ± 0.072 | -0.31 ± 0.083 |
| ACCAAGCAAUAUUACGGUGC | -2.72 ± 0.14 | -2.12 ± 0.23 |
| ACCAAGCAAUAUUACGUACU | -0.582 ± 0.049 | -0.135 ± 0.071 |
| ACCAAGCAAUAUUACGUAUA | -3.38 ± 0.16 | -2.36 ± 0.12 |
| ACCAAGCAAUAUUACGUCAC | -3.68 ± 0.47 | -2.89 ± 0.27 |
| ACCAAGCAAUAUUACGUCCU | -0.777 ± 0.058 | 0.0592 ± 0.075 |
| ACCAAGCAAUAUUACGUGAA | -2.5 ± 0.08 | -1.54 ± 0.091 |
| ACCAAGCAAUAUUACGUGAG | -1.19 ± 0.07 | -0.649 ± 0.086 |
| ACCAAGCAAUAUUACGUGUC | -2.94 ± 0.11 | -3.34 ± 0.18 |
| ACCAAGCAAUAUUACGUUUA | -2.41 ± 0.12 | -1.82 ± 0.11 |

| Sequence | self-splicing fitness (ln) (30 °C) | self-splicing fitness (ln) (37 °C) |
| --- | --- | --- |
| ACCCAGCAAUAUUACGAAAG | -2.85 ± 0.13 | -1.47 ± 0.17 |
| ACCCAGCAAUAUUACGAAGG | -1.71 ± 0.071 | -0.892 ± 0.1 |
| ACCCAGCAAUAUUACGAAUA | -2.29 ± 0.14 | -1.19 ± 0.12 |
| ACCCAGCAAUAUUACGACUU | 0.148 ± 0.042 | 0.908 ± 0.062 |
| ACCCAGCAAUAUUACGAGCC | -3.18 ± 0.15 | -1.54 ± 0.14 |
| ACCCAGCAAUAUUACGAUGU | -0.18 ± 0.041 | -0.0583 ± 0.052 |
| ACCCAGCAAUAUUACGCAAA | -1.21 ± 0.065 | -0.816 ± 0.068 |
| ACCCAGCAAUAUUACGCACA | -1.56 ± 0.081 | -0.306 ± 0.11 |
| ACCCAGCAAUAUUACGCACC | -1.17 ± 0.1 | -0.52 ± 0.16 |
| ACCCAGCAAUAUUACGCGCU | -1.91 ± 0.097 | -1.36 ± 0.11 |
| ACCCAGCAAUAUUACGGCAA | -0.219 ± 0.056 | -0.263 ± 0.068 |
| ACCCAGCAAUAUUACGGCAG | -3.84 ± 0.21 | -2.74 ± 0.18 |
| ACCCAGCAAUAUUACGGGGG | -3.46 ± 0.17 | -2.43 ± 0.15 |
| ACCCAGCAAUAUUACGGGUA | -2.54 ± 0.11 | -1.66 ± 0.084 |
| ACCCAGCAAUAUUACGGUAA | -1.26 ± 0.09 | -0.477 ± 0.087 |
| ACCCAGCAAUAUUACGUAUA | -2.2 ± 0.092 | -1.2 ± 0.085 |
| ACCCAGCAAUAUUACGUGCA | -0.703 ± 0.067 | -0.601 ± 0.072 |
| ACCGAGCAAUAUUACGAAAU | -2.68 ± 0.27 | -2.76 ± 0.34 |
| ACCGAGCAAUAUUACGACAG | -2.88 ± 0.17 | -2.41 ± 0.39 |
| ACCGAGCAAUAUUACGAGAA |  | -1.8 ± 0.29 |
| ACCGAGCAAUAUUACGAUUG | -3.69 ± 0.17 | -2.02 ± 0.18 |
| ACCGAGCAAUAUUACGCCAU | -4.46 ± 0.36 | -2.05 ± 0.22 |
| ACCGAGCAAUAUUACGCCUG | -3.61 ± 0.24 | -2.44 ± 0.17 |
| ACCGAGCAAUAUUACGCUCU | -0.43 ± 0.14 | -1.25 ± 0.16 |

| Sequence | self-splicing fitness (ln) (30 °C) | self-splicing fitness (ln) (37 °C) |
| --- | --- | --- |
| ACCGAGCAAUAUUACGCUUG | -3.65 ± 0.21 | -2.17 ± 0.26 |
| ACCGAGCAAUAUUACGGAAC | -3.03 ± 0.29 | -1.63 ± 0.21 |
| ACCGAGCAAUAUUACGGGAC | -2.88 ± 0.13 | -2.49 ± 0.18 |
| ACCGAGCAAUAUUACGGGCU | -3.3 ± 0.16 | -2.59 ± 0.19 |
| ACCGAGCAAUAUUACGGGGA | -1.87 ± 0.1 | -1.65 ± 0.1 |
| ACCGAGCAAUAUUACGGGGG | -3.8 ± 0.18 | -3.18 ± 0.2 |
| ACCGAGCAAUAUUACGGGGU | -3.7 ± 0.17 | -2.46 ± 0.17 |
| ACCGAGCAAUAUUACGGUAU | -3.76 ± 0.2 | -1.81 ± 0.14 |
| ACCGAGCAAUAUUACGUAGC | -3.46 ± 0.16 | -1.61 ± 0.15 |
| ACCGAGCAAUAUUACGUUCC | -2.7 ± 0.26 | -1.66 ± 0.23 |
| ACCGAGCAAUAUUACGUUUA | -3.4 ± 0.27 | -2.39 ± 0.18 |
| ACCUAGCAAUAUUACGAAGA | -2.01 ± 0.19 | -1.77 ± 0.13 |
| ACCUAGCAAUAUUACGACAG | -2 ± 0.089 | -1.34 ± 0.12 |
| ACCUAGCAAUAUUACGACGG | -1.3 ± 0.089 | -0.541 ± 0.14 |
| ACCUAGCAAUAUUACGAUAC | -3.47 ± 0.25 | -1.65 ± 0.2 |
| ACCUAGCAAUAUUACGAUUU | -0.879 ± 0.064 | -0.0104 ± 0.079 |
| ACCUAGCAAUAUUACGCAGA | -2.23 ± 0.09 | -1.11 ± 0.082 |
| ACCUAGCAAUAUUACGCGGA | -1.04 ± 0.085 | -0.0825 ± 0.086 |
| ACCUAGCAAUAUUACGCUUA | -1.73 ± 0.11 | -0.883 ± 0.1 |
| ACCUAGCAAUAUUACGCUUG | -3.5 ± 0.16 | -2.04 ± 0.16 |
| ACCUAGCAAUAUUACGGACU | -0.424 ± 0.059 | 0.508 ± 0.069 |
| ACCUAGCAAUAUUACGGAUA | -1.65 ± 0.11 | -1.59 ± 0.099 |
| ACCUAGCAAUAUUACGGAUU | -1.23 ± 0.072 | 0.134 ± 0.088 |
| ACCUAGCAAUAUUACGGGUG | -1.47 ± 0.071 | -1.1 ± 0.087 |
